Laboratory results from patent US20050014224A1 (Pfizer, published 2005).
Blank lines part the entries; values can stand above or below the molecule they belong to.

B1: mouse GITR (glucocorticoid-induced TNF receptor) (receptor, UniProt O35714 20-228, looked up)
chain: QPSVVEEPGCGPGKVQNGSGNNTRCCSLYAPGKEDCPKERCICVTPEYHCGDPQCKICKHYPCQPGQRVESQGDIVFGFRCVACAMGTFSAGRDGHCRLWTNCSQFGFLTMFPGNKTHNAVCIPEPLPTEQYGHLTVIFLVMAACIFFLTTVQLGLHIWQLRRQHMCPRETQPFAEVQLSAEDACSFQFPEEERGEQTEEKCHLGGRWP
notes: whole, on cells; endogenous on mouse T cells and HT-2 cells in the functional assays; also called cell-surface GITR

Key:
[1] = target: mouse GITRL expressed on cells (mouse) (UniProt Q7TS55); assay: flow cytometry on GITRL-Cos cells, FITC donkey antihuman antibody
[2] = target: T1, control mouse IL-21 receptor fused to the FLAG epitope, expressed on Cos cells (mouse, UniProt Q9JHX3 20-529); assay: cell-cell binding by flow cytometry (PE anti-FLAG / FITC anti-GITR)
T1 construct: whole, on cells; also called IL-21R-Flag-Cos
Description: Cell-cell interaction was detected by flow cytometry using phycoerythrin-labeled anti-Flag antibody (PE-FLAG) and fluorescein isothiocyanate (FITC)-labeled anti-GITR.

[3] = target: B1; assay: cell-based or functional assay

T1 sequence (Q9JHX3 20-529): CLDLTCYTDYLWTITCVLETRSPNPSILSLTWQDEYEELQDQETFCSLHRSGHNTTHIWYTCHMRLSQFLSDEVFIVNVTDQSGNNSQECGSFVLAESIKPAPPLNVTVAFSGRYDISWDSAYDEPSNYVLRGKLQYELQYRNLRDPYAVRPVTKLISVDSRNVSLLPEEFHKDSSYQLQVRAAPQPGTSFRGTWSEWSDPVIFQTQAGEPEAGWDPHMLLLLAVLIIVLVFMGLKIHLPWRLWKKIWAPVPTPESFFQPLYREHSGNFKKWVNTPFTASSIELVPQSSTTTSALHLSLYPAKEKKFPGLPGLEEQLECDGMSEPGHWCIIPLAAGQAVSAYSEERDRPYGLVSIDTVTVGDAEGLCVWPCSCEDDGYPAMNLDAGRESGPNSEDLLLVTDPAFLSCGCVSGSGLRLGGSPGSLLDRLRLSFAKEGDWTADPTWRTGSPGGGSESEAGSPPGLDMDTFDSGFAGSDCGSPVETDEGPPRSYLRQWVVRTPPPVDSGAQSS

FITC-Ab binding [1]: 7.9%
Molecule: control human IgG (antibody)

FITC-Ab binding [1]: 28.8%
fold increase in FITC-Ab binding compared to control HIgG [1]: 3.6 fold
Molecule: recombinant GITR fused to the Fc portion of human IgG (Fc fusion)

Molecule: B1
binding result [2]: no binding

^3H-thymidine incorporation of CD4^+CD25^+ T cells, fold increase over unmodified YB2/0 cells (˜50,000 cells) [3]: ~15 fold
B2: mouse GITRL expressed on cells (ligand)
chain: MEEMPLRESSPQRAERCKKSWLLCIVALLLMLLCSLGTLIYTSLKPTAIESCMVKFELSSSKWHMTSPKPHCVNTTSDGKLKILQSGTYLIYGQVIPVDKKYIKDNAPFVVQIYKKNDVLQTLMNDFQILPIGGVYELHAGDNIYLKFNSKDHIQKNNTYWGIILMPDLPFIS
